Results on 8 molecules are retold here after patent publication US20240101645A1 (HENRY M JACKSON FOUNDATION FOR THE ADVANCEMENT OF MILITARY …, published 2024).

Sequences and labels used below:
T1: HCoV-OC43 spike antigens (bead panel) (HCoV-OC43, UniProt P36334 14-1297)
T1 sequence: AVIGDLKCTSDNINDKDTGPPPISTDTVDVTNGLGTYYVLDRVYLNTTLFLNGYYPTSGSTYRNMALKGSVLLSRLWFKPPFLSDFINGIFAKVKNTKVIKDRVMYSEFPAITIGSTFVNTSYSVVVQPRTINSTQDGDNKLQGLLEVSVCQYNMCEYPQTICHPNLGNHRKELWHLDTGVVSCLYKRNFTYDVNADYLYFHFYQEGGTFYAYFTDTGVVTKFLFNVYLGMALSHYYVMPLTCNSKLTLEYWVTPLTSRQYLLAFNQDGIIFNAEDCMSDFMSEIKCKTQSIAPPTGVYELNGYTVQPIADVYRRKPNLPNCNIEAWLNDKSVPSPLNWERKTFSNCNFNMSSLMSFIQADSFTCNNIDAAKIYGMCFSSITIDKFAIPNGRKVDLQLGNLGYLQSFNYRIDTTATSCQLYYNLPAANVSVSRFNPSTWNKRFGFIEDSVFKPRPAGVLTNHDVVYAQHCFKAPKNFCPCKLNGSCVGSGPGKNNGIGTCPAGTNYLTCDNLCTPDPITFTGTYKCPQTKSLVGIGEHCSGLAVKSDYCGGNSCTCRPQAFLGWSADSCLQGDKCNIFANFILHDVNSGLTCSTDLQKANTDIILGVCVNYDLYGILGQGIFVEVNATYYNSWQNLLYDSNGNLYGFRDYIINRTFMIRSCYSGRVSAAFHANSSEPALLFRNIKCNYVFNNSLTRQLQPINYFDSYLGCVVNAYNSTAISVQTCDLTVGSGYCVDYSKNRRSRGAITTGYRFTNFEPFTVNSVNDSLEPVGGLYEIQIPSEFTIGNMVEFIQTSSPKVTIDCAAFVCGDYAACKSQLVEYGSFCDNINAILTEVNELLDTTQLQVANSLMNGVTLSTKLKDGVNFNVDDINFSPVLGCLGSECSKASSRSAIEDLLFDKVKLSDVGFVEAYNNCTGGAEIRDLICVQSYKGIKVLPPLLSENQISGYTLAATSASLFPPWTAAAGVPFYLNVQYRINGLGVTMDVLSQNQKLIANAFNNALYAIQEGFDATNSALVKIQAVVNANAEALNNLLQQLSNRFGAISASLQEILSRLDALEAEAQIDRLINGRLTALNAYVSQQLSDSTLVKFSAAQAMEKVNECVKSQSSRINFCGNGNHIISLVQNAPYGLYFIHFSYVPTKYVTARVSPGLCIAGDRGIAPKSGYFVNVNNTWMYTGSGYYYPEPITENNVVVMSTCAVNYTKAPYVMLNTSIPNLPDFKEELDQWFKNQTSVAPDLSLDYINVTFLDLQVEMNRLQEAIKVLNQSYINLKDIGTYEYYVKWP

T2: HCoV-HKU1 spike antigens (bead panel) (HCoV-HKU1, UniProt Q5MQD0 13-1300)
T2 sequence: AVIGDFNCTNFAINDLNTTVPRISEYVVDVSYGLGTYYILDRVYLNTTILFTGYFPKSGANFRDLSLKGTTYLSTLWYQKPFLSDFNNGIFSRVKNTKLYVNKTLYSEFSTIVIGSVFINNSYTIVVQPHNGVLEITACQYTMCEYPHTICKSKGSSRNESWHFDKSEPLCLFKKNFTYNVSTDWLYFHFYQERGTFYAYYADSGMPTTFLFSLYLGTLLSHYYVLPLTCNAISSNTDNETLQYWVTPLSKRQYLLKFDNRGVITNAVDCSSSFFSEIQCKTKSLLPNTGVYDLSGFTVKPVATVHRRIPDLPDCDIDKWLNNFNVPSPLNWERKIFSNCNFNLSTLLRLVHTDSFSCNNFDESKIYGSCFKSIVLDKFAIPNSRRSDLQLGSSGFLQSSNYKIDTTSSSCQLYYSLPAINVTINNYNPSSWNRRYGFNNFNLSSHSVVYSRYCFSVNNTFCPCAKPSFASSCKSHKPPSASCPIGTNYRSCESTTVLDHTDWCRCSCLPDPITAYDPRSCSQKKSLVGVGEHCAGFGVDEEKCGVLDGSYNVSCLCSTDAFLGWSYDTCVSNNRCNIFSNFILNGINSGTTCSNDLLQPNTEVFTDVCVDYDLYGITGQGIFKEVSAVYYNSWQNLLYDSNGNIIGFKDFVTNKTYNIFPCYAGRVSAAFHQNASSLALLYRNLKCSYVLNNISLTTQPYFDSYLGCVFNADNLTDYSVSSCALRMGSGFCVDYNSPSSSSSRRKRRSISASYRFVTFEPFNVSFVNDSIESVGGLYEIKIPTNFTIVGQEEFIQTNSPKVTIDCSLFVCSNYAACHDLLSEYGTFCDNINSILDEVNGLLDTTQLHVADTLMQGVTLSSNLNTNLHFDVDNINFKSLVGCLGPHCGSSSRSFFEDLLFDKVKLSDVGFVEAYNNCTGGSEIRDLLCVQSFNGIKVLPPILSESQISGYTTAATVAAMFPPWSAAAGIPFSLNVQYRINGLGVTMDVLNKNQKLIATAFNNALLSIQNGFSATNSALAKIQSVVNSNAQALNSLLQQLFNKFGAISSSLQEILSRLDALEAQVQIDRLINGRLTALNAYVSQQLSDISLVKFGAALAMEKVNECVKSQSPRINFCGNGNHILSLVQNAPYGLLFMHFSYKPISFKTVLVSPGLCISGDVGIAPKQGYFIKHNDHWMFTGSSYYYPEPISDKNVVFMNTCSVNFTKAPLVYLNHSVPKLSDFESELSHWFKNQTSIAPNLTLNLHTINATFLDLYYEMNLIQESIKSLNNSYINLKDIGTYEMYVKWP

B1: COV_2039 (antibody, V domains shown)
VH: QVQLVQSGAEVKKPGASVKVSCKVSGYMLIELSMHWVRQAPGKGLEWMGGFDPEDAETIYAQEFQGRVTMTEDTSTDTAYMELSSLRSEDTAVYYCTTGPAVTNRPADYWGPGTLVTVSS
VL: QSVLTQPPSVSGAPGQRVTISCTGSSSNIGASYDVHWYQQLPGTAPKLLIYANSNRPSGVPDRFSGSKSGTSASLAITGLQAEDEADYYCQSYDSSLSYSVVFGGGTKLTVL
notes: human IgG1
B2: COV_2014 (antibody, V domains shown)
VH: QVQLVQSGAEVKKPGASVKVSCKVSGYTLTELSMHWVRQAPGKGLEWMGGFDPEDGETIYAQKFQGRVTMTEDTSTDTAYMELSSLRSEDTAVYYCATGKINYYDSSGYYGTFDYWGQGTLVTVSS
VL: AIQLTQSPSSLSASVGDRVTITCRASQGISSYLAWYQQKPGKAPKLLIYAASTLQSGVPSRFSGSGSGTDFTLTISSLQPEDFATYYCQQLNSYHLTFGQGTRLEIK
notes: human IgG1
B3: COV_2093 (antibody, V domains shown)
VH: EVQLVESGGGLVQPGGSLRLSCAASGFMFNRFWMSWVRQAPGKGLEWVTNIKQDGSEKNYVDSVKGRFTISRDNAKNSLYLQMNSLRAEDTAVYYCARDGLYYDFRSPSPFYGMDVWGQGTTVTVSS
VL: DIQMTQSPSSLSASVGDRVTITCRASQSISSYLNWYQHKSGKAPKLLIYAASRLQSGVPSRFSGSGSGTDFTLTIVSLQPEDLATYYCQQSYSTPRTFGGGTKVEIKR
notes: human IgG1
B4: COV_2174 (antibody, V domains shown)
VH: EVQLAESGGGLVKPGGSLRLSCAASGFTFSDYYMSWIRQAPGKGLEWVSYISSSGSTIYYADSVKGRFTISRDNAKNSLYLQMNSLRAEDTAVYYCARDWSVVVVPAAPAVDVWGQGTTVTVSS
VL: DIQMTQSPSSLSASVGDRVTITCRASQGISNYLAWFQQKPGKAPKSLIYAASSLQSGVPSKFSGSGSGTDFTLTISSLQPEDFATYYCQQYNSYPLTFGGGTKVEIKR
notes: human IgG1
B5: COV_2077 (antibody, V domains shown)
VH: QVQLQESGPGLVKPSETLSLTCTVSGGSISSYSWSWIRQPPGKGLEWIGYIYYSGSTNYNPSLKSRVTISVDTSKNQFSLKLSSVTAADTAVYYCARESMGRYSLELRQPESAFDYWGRGTLVTVSS
VL: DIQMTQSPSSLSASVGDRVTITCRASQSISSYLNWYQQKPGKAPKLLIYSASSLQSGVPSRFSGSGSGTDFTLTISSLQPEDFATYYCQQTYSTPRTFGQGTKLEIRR
notes: human IgG1
B6: COV_2172 (SEQ ID NO:872/877) (antibody, V domains shown)
VH: EVQLVESGGGVVQPGRSLRLSCAPSGFTFSTYAMHWVRQAPGKGLEWVAVISYDGSIKYYADSVKGRFTISRDNTMNTVFLQMNSLRAEDTAVYFCAKGGERWELFTSFDYWGQGTQVTVSS
VL: QSALTQPRSVSGSPGQSVTISCTGTSSDVGGYNYVSWYQQHPGKAPKLMIYDVSKRPSGVPDRFSGSKSGNTASLTISGLQAEDEADYYCCSYAGSYTFVFGGGTKLTVLG
B7: COV_2143 (antibody, V domains shown)
VH: EVQLVESGGGVVQPGRSLRLSCAASGFTFNSFAMLWVRQAPGKGLEWVALFSYDGSNKYYADSVKGRFTISRDNSKNTLYLQMNNLRAVDTAVYYCARASPYDINGYYLHRIAFDIWGQGTMVTVSS
VL: QSVLMQPPSVSGAPGQRVTISCTGSSSNIGAGYDVHWYQQLPGTAPKLLMYGNSNRPSGVPDRFSGSKSGTSASLAITGLQAEDEADYYCQSYDSGLSGWVFGGGTKLTVLG
notes: human IgG1
B8: COV_3077 (antibody, V domains shown)
VH: QVQLQESGPGLVKPSETLSLTCAVSGYSISSGYYWGWIRQPPGKGLEWIGSIYHSGSTYYNPSLKSRVTISVDTSKNQFSLKLSSVTAADTAVYYCARALYDAFDIWGQGTMVTVSS
VL: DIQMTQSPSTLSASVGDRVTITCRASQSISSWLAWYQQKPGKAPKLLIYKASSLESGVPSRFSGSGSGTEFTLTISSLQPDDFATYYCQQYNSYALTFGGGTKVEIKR
notes: human IgG1

The target in the first assay is T1, HCoV-OC43 spike antigens (bead panel). Kind of assay: multiplex bead assay.
As for B1, the binding result is “no binding”.
Regarding B2, the binding result is given as “no binding”.
In the case of B3, the binding result was “no binding”.
On the same count and under the same terms, the result for B4 reads “no binding”.
On the same count and under the same terms, under B5 stands “no binding”; under B6, “no binding”; under B7, “no binding”.
As for B8, the binding result is “no binding”.

Another assay has as its target T2, HCoV-HKU1 spike antigens (bead panel). Kind of assay: multiplex bead assay.
Turning to B1, the binding result is recorded as “no binding”.
On the same count and under the same terms, under B2 stands “no binding”; under B3, “no binding”; under B4, “no binding”.
Still for that read-out and setting: the result for B5 reads “no binding”.
Same read-out and setting: under B6 stands “no binding”.
As for B7, the binding result is listed as “no binding”.
On the same count and under the same terms, the result for B8 reads “no binding”.
